What is called Kd is the free concentration of one partner at which half of the binding sites on the other are occupied at equilibrium, for simple one-to-one binding.

The results in this text go back to patent publication US20250026837A1 (CANCURE, published 2025).

Assay [1] has as its target T1, MICB (antigen in solution in the BLI assay) (UniProt Q29980 24-297, limits assumed).
T1 construct: also called antigen (MICB)
T1 sequence (looked up): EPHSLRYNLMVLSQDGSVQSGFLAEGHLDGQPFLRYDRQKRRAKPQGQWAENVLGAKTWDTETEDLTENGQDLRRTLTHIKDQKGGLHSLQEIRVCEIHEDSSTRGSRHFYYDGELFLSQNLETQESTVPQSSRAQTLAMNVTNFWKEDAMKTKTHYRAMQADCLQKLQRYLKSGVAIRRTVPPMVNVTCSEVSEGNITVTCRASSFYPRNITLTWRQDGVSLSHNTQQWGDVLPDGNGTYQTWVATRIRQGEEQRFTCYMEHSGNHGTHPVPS
Briefly: BLI, Octet Red96; antibody captured on biosensor, MICB dilution series in solution; 1:1 model, global fit; Ab-J (chimeric B10G5), FIG. 2A. The method, then:
(§1) Bio-layer interferometry (BLI) was performed using Octet Red96 (ForteBio) generally as described by Kamat and Rafique, Analytical Biochemistry 536: 16-31 (2017). Antibody samples, Ab-K and Ab-J (chimeric B10G5), were captured on kinetic grade biosensors. The loaded biosensors were then dipped into a dilution series of samples containing antigen (MICB) serially diluted in PBS buffer with 0.1% BSA, 0.02% Tween-20, pH 7.2. […] Kinetic analysis was performed using a 1:1 binding model and global fitting with mass transport limitation using the Scrubber software.
(Biolayer interferometry detects binding as a change in optical thickness at a sensor tip.)

The target of assay [2] is T1, MICB (antigen in solution in the BLI …). Briefly: BLI, Octet Red96; antibody captured on biosensor, MICB dilution series in solution; 1:1 model, global fit; Ab-K (humanized), FIG. 2B. The method, then:
as §1

B1: antibody J (Ab-J; chimeric B10G5, parental HC / parental LC with human IgG1 Fc region) (antibody, V domains shown)
VH: EVQLEESGPGLVKPSQSLSLTCTVTGYSITSDYAWNWIRQFPGNKLEWMGYISYSGSTNYNPSLKSRISITRDTSKNQFFLQLNSVITEDTATYYCARGGTYFDYWGQGTTLTVSS
VL: DIVLTQTTSYLSVSLGGRVTIACKASAHINNWLAWYQQKPGNAPRLLISDATSLETGVPSRFSGSGSGKDYTLSITSLQTEDVATYYCQHYWSTPWTFGGGTKLEIK
notes: also called chimeric antibody B10G5
B1: the Kd in assay [1] is 12.1 nM.

B2: antibody K (Ab-K; humanized HC2 / humanized LC3, human IgG1) (antibody, V domains shown)
VH: EVQLQESGPGLVKPSQTLSLTCTVSGYSITSDYAWNWIRQPPGKGLEWIGYISYSGSTNYNPSLKSRVTISRDTSKNQFSLKLSSVTAADTAVYYCARGGTYFDYWGQGTLVTVSS
VL: DVVMTQSPSTLSASVGDRVTITCRASAHINNWLAWYQQKPGKAPKLLISDATSLESGVPSRFSGSGSGKEYTLTISSLQPDDFATYYCQHYWSTPWTFGQGTKVEIKR
notes: also called K (HC2/LC3)
As to B2, in assay [2], binding was characterised by a dissociation constant (Kd) of 7.2 nM.
